Measured values published in patent US20180303937A1, “A COMPOSITION FOR CONTROLLED RELEASE OF A BIOMOLECULE, METHOD OF PREPARATION AND USES THEREOF” (CENTRO DE NEUROCIENCIAS E BIOLOGIA CELULAR, priority 2015, published 2018).

Tested on: SC-1 mouse fibroblasts
Assay: Cytotoxicity of BSA-dsDNA51.7-AuNR (Celltiter-Glo ATP assay)
Format: cell-based
Details: 50 μg/mL NR; irradiation 1.25 to 2 W/cm^2, 2 min
Description: FIG. 7: Cytotoxicity of BSA-dsDNA51.7-AuNR. Mouse fibroblasts were seeded on a 96 well plate (4×10^3 cells/well), left to adhere for 24 h and then incubated with different concentrations of BSA-dsDNA51.7-AuNR for 4 h. After incubation, the cells were washed with medium to remove non-internalized AuNR. Some of the conditions were irradiated for 2 min with 1.25 or 2 W/cm^2. Then, the plate was left in the incubator for 24 h. The ATP production was measured by a Celltiter-Glo Luminescent Cell Viability Assay (Promega).
Cytotoxicity of BSA-dsDNA51.7-AuNR. SC-1 mouse fibroblasts were grown in DMEM supplemented with 10% fetal bovine serum (FBS), at 37° C. in a fully humidified air containing 5% CO2. To assess the cytotoxicity of gold NRs, fibroblasts were seeded on a 96 well plate (4×10^3 cells/well), left to adhere for 24 h and then incubated with BSA-dsDNA51.7-AuNR for 4 h. After incubation, the cells were washed with medium to remove non-internalized NR. In some conditions, after incubation with BSA-dsDNA51.7-AuNR, the cells were washed and irradiated with a fiber coupled Roithner laser (785 nm). Each well was placed below the end of the fibre and irradiated with a power density of 1.25 and 2 W/cm^2 for 2 min. Then cells were left in the incubator for 24 h and the ATP production was measured by a Celltiter-Glo Luminescent Cell Viability Assay (Promega).

In the case of “BSA-dsDNA51.7-AuNR: gold nanorods carrying BSA via dsDNA with melting temperature 51.7° C.”, the “cytotoxic effects (ATP production)” value is reported as “do not show significant cytotoxic effects”.
